Measured values as given in patent publication US20140314747A1, “PREDICTING RESPONSE TO EGFR INHIBITORS” (Genentech, Inc., priority 2013, published 2014).

Test system: mesenchyme free lung explants (lung epithelium in Matrigel)
Assay: mesenchyme-free lung explant culture, growth and branching
Format: cell-based, mouse
Conditions: both LKB1 wt/wt and LKB1 MG/MG, presence and absence of NMPP1
Protocol: Pancreas and individual lobes of the lungs were dissected from embryos harvested from timed pregnancy setups. Embryonic explants were cultured on 12 mm Transwell® with 0.4 μm polyester membrane insert (Corning, Tewsbury, Mass.) at the air-liquid interface in DME media with 10% fetal calf serum, glutamine and penicillin-streptomycin. For longer-term cultures (>3 days), media was changed daily.
For mesenchyme-free cultures, lungs were dissected and incubated in Collagenase/Dispase (1 mg/ml for each) for 10-15 minutes at room temperature. Epithelial tissue was removed by mechanical dissection, transferred to the Transwell® plates, and covered with 5-10 μl of 1:1 Matrigel:DME. After Matrigel was solidified, 400 μl media (DME/10% FCS/glutamine/pen-strep+200 ng/ml FGF7 (Life Technologies, Carlsbad, Calif.), FGF1 (Life Technologies), or EGF (Life Technologies)) was added to top and bottom wells. Erlotinib (Tarceva®, 1 μM hydrochloride salt; OSI Pharmaceuticals) or DMSO was added as indicated.
Embryonic explants were fixed in 4% paraformaldehyde, permeabilized in PBS with 2% BSA, 0.1% saponin or 0.1% Triton-X100. After washing, tissues were stained with anti-E-cadherin (Santa Cruz). […]
Homozygous germline mutations in LKB1 in mice are early embryonic lethal. […] During this time, the response of these tissues to growth factors was assessed.

B1: FGF-7: fibroblast growth factor FGF-7 (Life Technologies) (protein, UniProt P21781 32-194, looked up)
Fibroblast growth factor 7: CNDMTPEQMATNVNCSSPERHTRSYDYMEGGDIRVRRLFCRTQWYLRIDKRGKVKGTQEMKNNYNIMEIRTVAVGIVAIKGVESEFYLAMNKEGKLYAKKECNEDCNFKELILENHYNTYASAKWTHNGGEMFVALNQKGIPVRGKKTKKEQKTAHFLPMAIT
  growth of mesenchyme free lung cultures: robust growth
